± gives the standard error. Variants at the floor of the assay were thinned out.
B1: glmS ribozyme (parent)
chain: AUAAAAGCGCCAGAACUACAGAAAUGUAGUUGACGAGGAGGAGGUUUAUCGAAUUUUCGGCGGAUGCCUCCAAA

Key:
Settings in all cases: with glucosamine-6-phosphate
glucosamine-6-phosphate [1] = variants of: B1; test: self-cleavage kobs at 40 uM GlcN6P; higher = faster cleavage; RNA array
How it was run: (§1)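 Glucosamine-6-phosphate, from 40 μM to 10 mM in HEPES/KCl/Mg(OAc)2 buffer, was flowed over sequenced MiSeq chips carrying barcoded ribozyme variants transcribed in situ by E. coli RNA polymerase. A hybridised Cy3 probe tracked the variants at 37 °C as tiles were imaged over ~14 h. kobs, kcat and KM were obtained by fitting normalised per-tile medians to exponential decays and then applying weighted Michaelis–Menten fits across concentrations.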

glucosamine-6-phosphate [2] = variants of: B1; test: self-cleavage kobs at 160 uM GlcN6P; higher = faster cleavage; RNA array
How it was run: as §1

glucosamine-6-phosphate [3] = variants of: B1; test: self-cleavage kobs at 640 uM GlcN6P; higher = faster cleavage; RNA array
How it was run: as §1

glucosamine-6-phosphate [4] = variants of: B1; test: self-cleavage kobs at 2500 uM GlcN6P; higher = faster cleavage; RNA array
How it was run: as §1

glucosamine-6-phosphate [5] = variants of: B1; test: self-cleavage kobs at 10000 uM GlcN6P; higher = faster cleavage; RNA array
How it was run: as §1

Variant | self-cleavage kobs at 40 uM GlcN6P (glucosamine-6-phosphate [1]) | self-cleavage kobs at 160 uM GlcN6P (glucosamine-6-phosphate [2]) | self-cleavage kobs at 640 uM GlcN6P (glucosamine-6-phosphate [3]) | self-cleavage kobs at 2500 uM GlcN6P (glucosamine-6-phosphate [4]) | self-cleavage kobs at 10000 uM GlcN6P (glucosamine-6-phosphate [5])
AUAAAAGCGCCAGAACUACAGAAAUGUAGUUGACGAAGAGGCGGUUGAUCGAAUUUUCGGCGGAUGCCUCCAAA [G37A A42C U47G] | < 1e-05 s⁻¹ | < 1e-05 s⁻¹ | < 1e-05 s⁻¹ |  | 
AUAAAAGCGCCAGAACUACAGAAAUGUAGUUGACGACGAGGAGGUUUAUCGAAUUGUCGGCGGAUGCCUCCAAA [G37C U56G] | < 1e-05 s⁻¹ | < 1e-05 s⁻¹ |  |  | 
AUAAAAGCGCCAGAACUACAGAAAUGUAGUUGACGAAGAGGAGGUUUAUCGAAUUUUCGGCGCAUGCCUCCAAA [G37A G63C] | < 1e-05 s⁻¹ | < 1e-05 s⁻¹ | < 1e-05 s⁻¹ | < 1e-05 s⁻¹ | < 1e-05 s⁻¹
AUAAAAGCGCCAGAACUACAGAAAUGUAGUUGACGACGAGGAGGUUUAUCGAAUCUUCGGCGGAUGCCUCCAAA [G37C U55C] | < 1e-05 s⁻¹ |  |  |  | 5.46e-05 ± 9.7e-06 s⁻¹
AUAAAAGCGCCAGAACUACAGAAAUGUAGUUGACGACGAGGAGGUAUAUCGAAUUUUCGGCGGAUGCCUCCAAA [G37C U46A] | < 1e-05 s⁻¹ | < 1e-05 s⁻¹ | < 1e-05 s⁻¹ |  | < 1e-05 s⁻¹
AUAAAAGCGCCAGAACUACAGAAAUGUAGUUGACGACGAGGAGGUUUAUCGAAUUUUCGGCGGAGGCCGCCAAA [G37C U65G U69G] | < 1e-05 s⁻¹ |  |  |  | < 1e-05 s⁻¹
AUAAAAGCGCCAGAACUACAGAAAUGUAGUUGACGACGAGGCGGUUUAUCGAAUUUUCGGCGGAUGCCUCGAAA [G37C A42C C71G] | < 1e-05 s⁻¹ | < 1e-05 s⁻¹ | < 1e-05 s⁻¹ | < 1e-05 s⁻¹ | < 1e-05 s⁻¹
AUAAAAGCGCCAGAACUACAGAAAUGUAGUUGACGAAGAGGAGGUUUAUGGAAUUUUAGGCGGAUGACUCUAAA [G37A C50G C58A C67A C71U] | 4.39e-05 ± 1.4e-05 s⁻¹ |  |  | 6.21e-05 ± 1.7e-05 s⁻¹ | 
AUAAAAGCGCCAGAACUACAGAAAUGUAGUUGACGACGAGGAGGUUUAUCGAAUUUUCGGCGGUUGCCUCCAAA [G37C A64U] | < 1e-05 s⁻¹ | < 1e-05 s⁻¹ | < 1e-05 s⁻¹ | < 1e-05 s⁻¹ | < 1e-05 s⁻¹
AUAAAAGCGCCAGAACUACAGAAAUGUAGUUGACGACGAGGAGGUUUAUCGAAUUUUCAGCGGAUGCCUCCAAA [G37C G59A] | < 1e-05 s⁻¹ | < 1e-05 s⁻¹ |  |  | < 1e-05 s⁻¹
AUAAAAGCGCCAGAACUACAGAAAUGUAGUUGACGACGAGGAGGUUUAUCGAAUUUUCGGCGGCUGCUUCCAAA [G37C A64C C68U] | < 1e-05 s⁻¹ |  |  | < 1e-05 s⁻¹ | < 1e-05 s⁻¹
AUAAAAGCGCCAGAACUACAGAAAUGUAGUUGACGACGAGGAGGUUUAUCGAACUUUCGGUGGAUGGCUCCAAA [G37C U54C C61U C67G] | < 1e-05 s⁻¹ |  |  |  | < 1e-05 s⁻¹
AUAAAAGCGCCAGAACUACAGAAAUGUAGUUGACGAAGAGGAGGUUUAUCGAAUUUGCGGCGGAUGCCUCCAAA [G37A U57G] | < 1e-05 s⁻¹ |  |  |  | 
AUAAAAGCGCCAGAACUACAGAAAUGUAGUUGACGAAGAGGAGGUUUAUGGAAUUUUCGGCGGAUGCCUGCAAA [G37A C50G C70G] | 4.31e-05 ± 2.1e-05 s⁻¹ |  |  |  | 
AUAAAAGCGCCAGAACUACAGAAAUGUAGUUGACGAAGUGGGGGUUUAUUGAAUUUUCGGCGGAUGCCUCCAAA [G37A A39U A42G C50U] | < 1e-05 s⁻¹ |  | < 1e-05 s⁻¹ |  | < 1e-05 s⁻¹
AUAAAAGCGCCAGAACUACAGAAAUGUAGUUGACGAUGUGGAGGUUUAUCGAAUUUUCGGCGGAUGCCUGCAAA [G37U A39U C70G] | < 1e-05 s⁻¹ |  |  |  | 
AUAAAAGCGCCAGAACUACAGAAAUGUAGUUGACGUGGAGGAGGUUUAUCGAAUUUUCGGCGGAUGCCGCCAAA [A36U U69G] | 3.66e-05 ± 8.9e-06 s⁻¹ | 0.000214 ± 3.9e-05 s⁻¹ | 0.000283 ± 5.8e-05 s⁻¹ | 9.73e-05 ± 2.3e-05 s⁻¹ | 0.000107 ± 4.1e-05 s⁻¹
AUAAAAGCGCCAGAACUACAGAAAUGUAGUUGACGACGAGGCGGUUUAUCGAAUUUUCGGCGGAUGCCUCCAAA [G37C A42C] | < 1e-05 s⁻¹ | < 1e-05 s⁻¹ |  | < 1e-05 s⁻¹ | 
AUAAAAGCGCCAGAACUACAGAAAUGUAGUUGACGUGGAGGAGGUUUAUCGAAUUUUCGGCGGAGGCCUCCAAA [A36U U65G] | < 1e-05 s⁻¹ | < 1e-05 s⁻¹ |  |  | < 1e-05 s⁻¹
AUAAAAGCGCCAGAACUACAGAAAUGUAGUUGACGAAGAGGAGGUUUAUCGAGUUUUCGUUGAAUGCCUCCAAA [G37A A53G G60U C61U G63A] | < 1e-05 s⁻¹ |  |  |  | 
AUAAAAGCGCCAGAACUACAGAAAUGUAGUUGACGACGAGGAGGUUUAUCGAAUUUUCCGCGGGUGCAUCCAAA [G37C G59C A64G C68A] | < 1e-05 s⁻¹ | < 1e-05 s⁻¹ |  |  | 
AUAAAAGCGCCAGAACUACAGAAAUGUAGUUGACGUGGAGGAGGUUUAUCGAAUGUUCGGCGAAUGCCUCAAAA [A36U U55G G63A C71A] | < 1e-05 s⁻¹ |  |  |  | 
AUAAAAGCGCCAGAACUACAGAAAUGUAGUUGACGAAGAGGAGGUUUAUCGAGUUUUCGGCGGAUGCCUCCAAA [G37A A53G] | 0.000101 ± 2.3e-05 s⁻¹ | 0.000212 ± 3.8e-05 s⁻¹ | 0.000708 ± 0.00015 s⁻¹ | 0.00163 ± 0.00063 s⁻¹ | 0.00615 ± 0.0014 s⁻¹
AUAAAAGCGCCAGAACUACAGAAAUGUAGUUGACGAUGAGGAGGUUUUUCGAAUUUUCGGCGGAUGCCUCCAAA [G37U A48U] | < 1e-05 s⁻¹ | < 1e-05 s⁻¹ |  | < 1e-05 s⁻¹ | < 1e-05 s⁻¹
AUAAAAGCGCCAGAACUACAGAAAUGUAGUUGACGAAGAGGAGGUUUAUCGAAUUUUCGGAGGAUGCCUCCAAA [G37A C61A] | < 1e-05 s⁻¹ |  | < 1e-05 s⁻¹ |  | < 1e-05 s⁻¹
AUAAAAGCGCCAGAACUACAGAAAUGUAGUUGACGAAGAGGAGGUUUAUCGAAUUUCCCGCGGAUGCCUCCAAA [G37A U57C G59C] | < 1e-05 s⁻¹ |  |  |  | < 1e-05 s⁻¹
AUAAAAGCGCCAGAACUACAGAAAUGUAGUUGACGAAUAGGAGGUUUAUGGAAUUUUCGGCGGAUGUCUCCAAA [G37A G38U C50G C67U] | 8.1e-05 ± 3.5e-05 s⁻¹ |  |  |  | 0.000315 ± 8.1e-05 s⁻¹
